In paper PMC314469, “Protein Interaction Networks by Proteome Peptide Scanning” (PLoS Biology, 2004):

T1: Yfr024 SH3 (LSB3_YEAST), P43603
T1 chain: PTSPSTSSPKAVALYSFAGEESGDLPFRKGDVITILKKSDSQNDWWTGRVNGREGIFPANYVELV

T2: Yhr016c SH3 (YSC84_YEAST), P32793
T2 chain: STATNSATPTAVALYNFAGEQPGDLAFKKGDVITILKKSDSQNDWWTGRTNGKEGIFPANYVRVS

T3: Boi2 SH3 (BOI2_YEAST), P39969
T3 chain: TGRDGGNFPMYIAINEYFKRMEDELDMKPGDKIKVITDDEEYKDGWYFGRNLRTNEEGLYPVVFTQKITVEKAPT

T4: Rvs167 SH3 (RV167_YEAST), P39743
T4 chain: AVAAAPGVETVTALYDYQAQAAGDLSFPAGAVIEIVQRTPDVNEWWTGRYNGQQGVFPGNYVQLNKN

T5: Boi1 SH3 (BOI1_YEAST), P38041
T5 chain: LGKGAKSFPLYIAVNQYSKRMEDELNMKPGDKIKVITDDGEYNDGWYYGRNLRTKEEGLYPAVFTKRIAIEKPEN


What was measured:
Test in all cases: SPOT array
[1] = biological target: T1, Yfr024 SH3 (LSB3_YEAST), P43603
[2] = biological target: T2, Yhr016c SH3 (YSC84_YEAST), P32793
[3] = biological target: T3, Boi2 SH3 (BOI2_YEAST), P39969
[4] = biological target: T4, Rvs167 SH3 (RV167_YEAST), P39743
[5] = biological target: T5, Boi1 SH3 (BOI1_YEAST), P38041

Row | Binder | normalised SPOT signal, Boehringer light units (BLU); mean over the file's lines of this peptide [1] | normalised SPOT signal, Boehringer light units (BLU); mean over the file's lines of this peptide [2] | normalised SPOT signal, Boehringer light units (BLU); mean over the file's lines of this peptide [3] | normalised SPOT signal, Boehringer light units (BLU); mean over the file's lines of this peptide [4] | normalised SPOT signal, Boehringer light units (BLU); mean over the file's lines of this peptide [5]
1 | GYDPTDPNRPKVTK [YER166W 1426-1439] | 54.7 | 69.3 | 52.4 | 35.5 | 108
2 | GITPVGPGKFSRSA [YEL050C 256-269] | 21.5 | 81.1 | 55.7 | 32.3 | 21.6
3 | GYDPTDPSRPRINE [YDR093W 1469-1482] | -0 | 257 | 34.7 | 71.5 | 98.5
4 | GSEPIDPSKLEFAR [YLR191W 299-312] | 53.6 | 37.9 | 25.3 | 33 | 57.5
5 | GSNPDLPNKSNLKF [YGR080W 307-320] | 637 | 180 | 38.5 | 26.2 | 163
6 | GVFPNSPVKQTTII [YPL023C 580-593] | 269 | 116 | 97.9 | 4 | 64.4
7 | GKVPVQPRKRKSIT [YKL062W 547-560] | 1430 | 296 | 85.3 | 73 | 242
8 | GWKPLRPIKLISWD [YJR126C 478-491] | 12000 | 407 | 236 | 286 | 59.3
9 | GTPPTTPLRTAQGI [YOR025W 379-392] | 5740 | 2770 | 36 | 197 | 97.3
10 | GRHPDMPTRVKNAY [YDR188W 219-232] | 768 | 152 | 44.5 | 148 | 104
11 | GRKPKDPSKPRQML [YML065W 331-344] | 268 | 160 | 42.2 | 31.8 | 147
12 | GNTPDAPKRGFLGY [YDL245C 44-57] | 658 | 230 | 27.7 | 37.1 | 86.5
13 | GNIPVFPAKFGIQF [YAL010C 476-489] | 1730 | 212 | 59.2 | 50.1 | 46.1
14 | GVYPSRPEKTYDYS [YBR026C 71-84] | 470 | 113 | 47.3 | 12.9 | 111
15 | GNVPHSPVRFADTV [YJR025C 93-106] | 0.8 | 49 | 29.6 | 36.2 | 115
16 | GRIPQLPNRDEMTA [YCR073C 1268-1281] | 11500 | 20900 | 54.1 | 11900 | 78.4
17 | GVPPNFPQRMMPPP [YKL204W 471-484] | 1870 | 283 | 84.6 | 58.8 | 58.2
18 | GILPLAPLRPLDPL [YPL085W 915-928] | 1660 | 318 | 30.8 | 57.3 | 115
19 | GPAPPPPPRASRPT [YOR181W 384-397] | 6370 | 2360 | 55.8 | 3120 | 10300
20 | GSSPVSPDKRPSWK [YGL156W 66-79] | 223 | 493 | 18.6 | 50.3 | 69.6
21 | GPPPAMPARPTATT [YBL007C 192-205] | 11500 | 1070 | 140 | 83.3 | 86.8
22 | GLEPNTPLKSIKVD [YGL009C 340-353] | 68.2 | 47.7 | 58.9 | 59.1 | 55.1
